According to patent publication US20160376372A1 (VACCINEX, published 2016):
Numbering of substitutions follows the chain as printed. Each block holds one molecule with its values, some of them ahead of it.

Experiments:
[1] = molecular target: human CD20 antigen (human) (UniProt P11836); test: flow cytometry, EB1 cells (CD20 positive)
[2] = molecular target: human CD20 antigen (human) (UniProt P11836); test: flow cytometry, EHEB cells (CD20 positive)
[3] = molecular target: human CD20 antigen (human) (UniProt P11836); test: flow cytometry, Daudi cells (CD20 positive)
[4] = molecular target: human CD20 antigen (human) (UniProt P11836); test: flow cytometry, Daudi cells (CD20 positive); remark: listed apart in the source
[5] = molecular target: T1, human CD20 antigen (human, UniProt P11836 1-297); test: flow cytometry, EB1 cells (CD20 positive)
T1 construct: whole, on cells; also called Bp35; B1
T1 sequence (looked up): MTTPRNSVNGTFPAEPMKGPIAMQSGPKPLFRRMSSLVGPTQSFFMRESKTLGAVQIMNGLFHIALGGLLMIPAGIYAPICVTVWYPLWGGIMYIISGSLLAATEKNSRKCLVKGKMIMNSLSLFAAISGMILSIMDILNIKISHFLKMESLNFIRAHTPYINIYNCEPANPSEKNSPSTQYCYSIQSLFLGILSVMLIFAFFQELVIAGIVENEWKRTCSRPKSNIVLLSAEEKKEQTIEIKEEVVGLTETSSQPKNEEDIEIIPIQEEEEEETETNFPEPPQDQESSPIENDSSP
Procedure: (§1) Binding specificity was assessed by Fluorometric Microvolume Assay Technology (FMAT, Applied Biosystems 8200 Cellular Detection System) and Flow Cytometry, which tabulates Mean Fluorescence Intensities (MFI) of staining on CD20 positive (CD20⁺) and CD20 negative cell lines.

[6] = molecular target: T1, human CD20 antigen; test: flow cytometry, EHEB cells (CD20 positive)
Procedure: (§2) Binding specificity was assessed by Flow Cytometry, which tabulates Mean Fluorescence Intensities (MFI) of staining on CD20 positive (CD20⁺) and CD20 negative cell lines.

[7] = molecular target: T1, human CD20 antigen; test: flow cytometry, Daudi cells (CD20 positive)
Procedure: as §1

[8] = molecular target: T1, human CD20 antigen; test: flow cytometry, Daudi cells (CD20 positive); remark: listed apart in the source
Procedure: as §2

[9] = molecular target: T1, human CD20 antigen; test: flow cytometry, CHO.CD20 cells (CD20 positive)
Procedure: as §2

Mean Fluorescence Intensity (MFI) [1]: 429 MFI
Mean Fluorescence Intensity (MFI) [2]: 130 MFI
Mean Fluorescence Intensity (MFI) [3]: 145 MFI
Mean Fluorescence Intensity (MFI) [4]: 941 MFI
Molecule: mAb 271 (rituximab-sequence antibody)

Mean Fluorescence Intensity (MFI) [5]: 395 MFI
Mean Fluorescence Intensity (MFI) [6]: 161 MFI
Mean Fluorescence Intensity (MFI) [7]: 132 MFI
Mean Fluorescence Intensity (MFI) [8]: 1370 MFI
Mean Fluorescence Intensity (MFI) [9]: 106 MFI
B1: optimized humanized mAb 1237 (antibody, V domains shown)
VH: QVQLVQSGAEVKKPGSSVKVSCKASGYTFTSYNMHWVRQAPGQGLEWIGAIYPGNGDTSYNQKFKGKATITADKSTSTAYMELSSLRSDDTAVYYCARSTYYAGDWNFNNWGQGTLVTVSS
VL: DIQMTQSPSSLSASVGDRVTITCRASSSVSYIHWFQQKPGKAPKPLIYAASSLQSGVPSRFSGSGSGTDYTLTISSLQPEDFATYYCQQWTSNPPTFGGGTKLEIK
notes: detected with anti-human Ig Fc

Mean Fluorescence Intensity (MFI) [5]: 389 MFI
Mean Fluorescence Intensity (MFI) [7]: 114 MFI
B2: optimized humanized mAb 1238 (antibody, V domains shown)
VH: B1 VH with N110D
VL: B1 VL
notes: as for B1

Mean Fluorescence Intensity (MFI) [6]: 429 MFI
Mean Fluorescence Intensity (MFI) [8]: 1630 MFI
Mean Fluorescence Intensity (MFI) [9]: 135 MFI
B3: optimized humanized mAb 1590 (antibody, V domains shown)
VH: B1 VH with D57L
VL: B1 VL

Mean Fluorescence Intensity (MFI) [6]: 450 MFI
Mean Fluorescence Intensity (MFI) [8]: 1670 MFI
Mean Fluorescence Intensity (MFI) [9]: 137 MFI
B4: optimized humanized mAb 1692 (antibody, V domains shown)
VH: B1 VH with N109G
VL: B1 VL

Mean Fluorescence Intensity (MFI) [6]: 345 MFI
Mean Fluorescence Intensity (MFI) [8]: 1030 MFI
Mean Fluorescence Intensity (MFI) [9]: 140 MFI
B5: optimized humanized mAb 1589 (antibody, V domains shown)
VH: B1 VH with D57A
VL: B1 VL

Mean Fluorescence Intensity (MFI) [6]: 529 MFI
Mean Fluorescence Intensity (MFI) [8]: 1420 MFI
Mean Fluorescence Intensity (MFI) [9]: 135 MFI
B6: optimized humanized mAb 1652 (antibody, V domains shown)
VH: B1 VH with D57A
VL: B1 VL with T91Q

Mean Fluorescence Intensity (MFI) [6]: 338 MFI
Mean Fluorescence Intensity (MFI) [8]: 2070 MFI
Mean Fluorescence Intensity (MFI) [9]: 140 MFI
B7: optimized humanized mAb 1588 (antibody, V domains shown)
VH: B1 VH with S31F
VL: B1 VL

Mean Fluorescence Intensity (MFI) [5]: 409 MFI
Mean Fluorescence Intensity (MFI) [7]: 145 MFI
B8: optimized humanized mAb 1236 (antibody, V domains shown)
VH: B1 VH with A103G
VL: B1 VL
notes: as for B1
